Laboratory results: patent US20230250158A1 (TALEM THERAPEUTICS, published 2023)
Numbering of substitutions follows the chain as printed. Read-outs that look alike come from different tables or passages of the source.

B1: 22-E8 (antibody, V domains shown)
VH: QVQLVQSGAEVKKPGSSVKVSCKASGGTFSSYAISWVRQAPGQGLEWMGGIIPIFGTTNYAQKFQGRVTITADESTSTAYMELSSLRSEDTAVYYCARDHGYYYGMDVWGQGTTVTVSS
VL: QSVLTQPSSVSAAPRQRVTLSCSGGDSNIGQNGVNWYLHVPGKAPRLVVYYDYLVSAGMSARFSGSRSGTSASLAISGLQSEDEGVYYCASWDDSLSAWVFGGGTKLTVL
B2: 24-B8 (antibody, V domains shown)
VH: QVQLVQSGAEVKKPGSSVKVSCKASGGTFSNYAISWVRQAPGQGLEWMGGIIPILDTTNYAQKFQGRVTITADESTSTAYMELNSLRSEDTAVYYCVREEGFDYWGQGTLVTVSS
VL: QSVLTQPSSLSASPGASASLTCTLRSGINVGAYNIYWYQQKPGSPPQFVLRYNSDSDNQQGSGVPSRFSGSKDASANAGILLISGLQSEDEAEYYCMIWRSSAWVFGGGTKLTVL
B3: 23-H7 (antibody, V domains shown)
VH: QVQLVQSGAEVKLPGASMKVSCKASGYTFSTYYMHWVRQAPGQGPEWMGVIDPSGGTTSYAQKFHDRIAMTRDTSTSTAYLELSSLRSEDMAVYYCARGGFADAVDYWGQGTLVTVSS
VL: NFMLTQPHSVSGSPGKTVTISCTRNSGSIAGNYVQWYQQRPGSAPTTVIYEDNQRPSGVPDRFSGSIDSSSNSASLTISGLKTEDEADYYCQSYDASHLHVIFGGGTKVTVL
notes: also called bin 2
B4: 23-H7 Fab (Fab, V domains shown)
VH: B3 VH
VL: B3 VL
B5: 11-H1 (antibody, V domains shown)
VH: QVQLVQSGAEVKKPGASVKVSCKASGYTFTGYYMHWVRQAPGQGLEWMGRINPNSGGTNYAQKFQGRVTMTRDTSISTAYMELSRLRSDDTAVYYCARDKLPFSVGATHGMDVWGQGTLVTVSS
VL: QSVLTQPPSVSEAPRQRVTISCSGSSSNIGNNAVNWYQQLPGQAPRLLIYYDNLLPSGVSDRFSASTSGTSASLAISDLRSEDEADYYCASWDDRLDSPVFGGGTKLTVL
B6: 23-A11 (antibody, V domains shown)
VH: QVQLVESGGGVVQPGRSLRLSCAASGFTFSSYGMHWVRQAPGKGLEWVAVISYDGSNKYYADSVKGRFTISRDNSKNTLYLQMNSLRAEDTAVYYCAKEGELRGAFDIWGQGTMVTVSS
VL: SYVLTQPPSVSVAPGKTARITCGGDNIESKYVHWYQQKPGQAPVLVIYYDTDRPSGIPERFSGANSGNSATLTISRVEAGDEADYYCQVWDRTSGHFVFGPGTKVTVL
B7: 21-H1 (antibody, V domains shown)
VH: B6 VH with M114T
VL: DIVMTQSPLSLPVTPGEPASISCTSSQSLLHSIGYNFVDWYLQKPGQSPQLLIYSASNRASGVPDRFSGSGSGTDFTLKISRVEAEDVGVYYCMQALQRTLYTFGQGTKVESK
B8: 21-F2 (antibody, V domains shown)
VH: QVQLVQSGAEVKKPGASVTVSCKTSGYIFTNYDINWVRQAPGQGLEWVGWVNPNSGKVGYAQKFQGRVIMTRSDSESTAYMELTNLTSDDTAVYYCARGHTDFWGQGTLVTVSS
VL: QSVLTQPPSVSEAPRQRVTISCSGSSSNIGNNAVNWYQQLPGRAPKLLIYYDDLLPSGVSDRFSGSKSGTSASLAISGLQSEDEADYYCAAWDDSLNGVVFGGGTQLTVL
B9: 21-F2 optimized (antibody, V domains shown)
VH: B8 VH with N85Q
VL: B8 VL
B10: 22-D9 (antibody, V domains shown)
VH: QVQLVQSGAEVKKPGSSVNVSCKTSGGTFNTYSINWVRQAPGQGLEWMGEIIPIFDKPNYAQKFQGRVTITADESTSTAYMELTSLRSDDTAVYYCARGTGYYYGMDVWGQGTTVTVSS
VL: QSVLTQPPSVSGAPRQTVTISCFGSRSNIGNYPVNWYHQVPGKAPKVVVYYDDLLPSGISDRFSGYKSGTSASLTISGLRSEDEADYYCATWDDSLNVWVFGGGTKLTVL
notes: also called bin 4
B11: 22-D9 Fab (Fab, V domains shown)
VH: B10 VH
VL: B10 VL
B12: 22-F7 (antibody, V domains shown)
VH: QVQLVESGGGVVQPGRSLRLSCAASGFSFTNYGMHWVRQAPGKGLEWVAVISYDGSIKYYEDSLKGRFTVSRDNSKKTLYLQMNSLRAEDTAVYYCTRERGTGIDYWGLGTLVTVSS
VL: QSALTQPASVSGYPGQSITLSCTGTKSDIGAYNYVSWYQQHPGKAPKLMVYDVSNRPSGLSNRFSGSKSDNTASLTISGLQAEDEAHYYCSSYTTSGTVVFGGGTKVTVL
notes: also called bin C
B13: 5-B6 (antibody, V domains shown)
VH: QVQLVQSGAEVKKPGSSVKVSCKASGGTFSSYAISWVRQAPGQGLEWVGGIIPMFNSASYAQKFQGKVTITADKATNTAYMELSSLRSEDTAVYYCARESSGYYYVSNWFDPWGQGTLVTVSS
VL: QSVLTQPSSVSGAPGQRVTISCTGSSSNIGAGYDVHWYQQIPGTAPRLLIYANSGRASGVPDRFSGSKSGTSASLAITGLQAEDEADYYCQSYDSSLSGVVFGGGTKLTVL
B14: 8-A2 (antibody, V domains shown)
VH: QVQLVQSGAEVKKPGASVKVSCKASGYTFTGYYLHWVRQAPGQGLEWMGRINPNSGGTNYAQKFQGRVTMTRDTSISTAYMELSRLTSDDTAVYYCLAVAGTGGDAFDIWGQGTTVTVSS
VL: DIQMTQSPSTLSASVGDRVTITCRASQSISSWLAWYQQKPGKAPKLLIYAASSLESGVPSRFSGSGSGTDFTLTISSLQPEDFATYYCQQGHSFPLTFGGGTKVDIK
B15: 2-A6 (antibody, V domains shown)
VH: QVTLRESGPALVKPTQTLTLTCTFSGFSLNTRGMSVSWIRQPPGKALEWLALIDWEDDKFYRTSLMTRLTISKDIFKNQVVLTMTNVDPVDTGTYYCARTYSVGVKYFGMDVWGQGTTVTVSS
VL: SSELTQDPAVSVALGQTVRITCQGDSLRNYYASWYRQEPGQAPILLIYGGNYRPSGIPDRFSGSSSGNTASLTITGAQAEDEADYYCNSRDSSGNHVVFGGGTKLTVL
notes: also called bin S2
B16: 27-A11 (antibody, V domains shown)
VH: QVQLVQSGAEVKKPGASVKVSCKASGYTFTSYYMHWVRQAPGQGLEWMGIIDPSGGSTSYAQKFQGRVTLTRDTSTSTVYMELSSLRSEDTAVYYCARSRDGYIDDAFDIWGQGTLVTVSS
VL: QSVLTQPPSVSAAPGQKVTISCSGSSSNIGNNYVSWYQQLPGTAPKLLIYDNNKRPSGIPDRFSGSKSGTSATLGITGLQTGDEADYYCGTWDSSLSAGVFGGGTKLTVL

Experiments:
[1] = target: SARS-CoV-2 Spike protein on VSV pseudotyped virus particles (Wuhan-1 isolate Spike sequence) (SARS-CoV-2, UniProt P0DTC2 13-1273); assay: cell-based or functional assay
[2] = target: Wuhan-1; assay: flow cytometry on Spike-transfected HEK293F cells, heat map
[3] = target: T1, SARS-CoV-2 Spike S1-hFc (SARS-CoV-2, UniProt P0DTC2 16-685)
[4] = target: T2, SARS-CoV-2 Spike RBD-hFc (SARS-CoV-2, UniProt P0DTC2 319-541)
[5] = target: T1, SARS-CoV-2 Spike S1-hFc; assay: Octet BLI; Fab as analyte over S1-hFc on AHC sensors; 1:1 kinetic fit
[6] = target: T2, SARS-CoV-2 Spike RBD-hFc; assay: Octet BLI; Fab as analyte over RBD-hFc on AHC sensors; 1:1 kinetic fit
[7] = target: SARS-CoV-2 Spike on SARS-CoV2-S CHO-K1 cells (wild-type, Wuhan-1) (SARS-CoV-2, UniProt P0DTC2 13-1273); assay: flow cytometry on SARS-CoV2-S CHO-K1 cells, anti-human IgG-PE detection
[8] = target: T2, SARS-CoV-2 Spike RBD-hFc; assay: Octet BLI; Fab as analyte over RBD-hFc on AHC sensors; steady-state analysis
[9] = target: T2, SARS-CoV-2 Spike RBD-hFc; assay: Octet, Fab as analyte over RBD-hFc on AHC sensor

Binder | Pseudovirus IC50 [1] | other results
B1 | 11.2 µg/mL | –
B2 | 6.26 µg/mL | –
B3 | 0.84 µg/mL | binding result [2]: binds
B4 | – | Kd [3]: 6 nM; Kd [4]: 9 nM; Kd [5]: 14 nM; Kd [6]: 13 nM
B5 | > 42 µg/mL | –
B6 | > 42 µg/mL | –
B7 | > 42 µg/mL | –
B8 | 0.84 µg/mL | –
B9 | – | binding result [7]: binds
B10 | 4.99 µg/mL | binding result [2]: binds
B11 | – | Kd [8]: 163 nM; Kd [9]: 160 nM
B12 | 12.6 µg/mL | –
B13 | > 42 µg/mL | –
B14 | > 42 µg/mL | –
B15 | > 42 µg/mL | –
B16 | 12.8 µg/mL | –
